Experimental data: patent publication US20030176671A1 (SANFORD BURNHAM MEDICAL RESEARCH INSTITUTE, published 2003)
Where a chain is given by its changes, count along the chain named.

T1: GFP-Bak (UniProt Q16611 1-211)
T1 construct: also called pEGFP-Bak; not shown: EGFP from a pEGFP vector
T1 sequence (looked up): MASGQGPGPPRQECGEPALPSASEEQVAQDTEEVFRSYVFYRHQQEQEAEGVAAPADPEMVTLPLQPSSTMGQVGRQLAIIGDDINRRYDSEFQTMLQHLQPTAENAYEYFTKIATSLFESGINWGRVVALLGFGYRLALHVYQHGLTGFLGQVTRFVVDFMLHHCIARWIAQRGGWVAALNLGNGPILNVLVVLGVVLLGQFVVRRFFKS

B1: Myc-Bcl-B deletion 118-133 (other, not shown: small tags and cut ends)
chain: MVDQLRERTTMADPLRERTELLLADYLGYCAREPGTPEPAPSTPEAAVLRSAAARLRQIHRSFFSAYLGYPGNRFELVALMADSVLSDSPGPTWGRVVTLVTFAGTLLERGPLVTARVARDCQRLVALLSSRLMGQHRAWLQAQGGWDGFCHFFRTPFPLAFWRKQLVQAFLSCLLTTAFIYLWTRLL
notes: also called (delta)118-133
B2: Myc-Bcl-B (other, not shown: small tags and cut ends)
chain: MVDQLRERTTMADPLRERTELLLADYLGYCAREPGTPEPAPSTPEAAVLRSAAARLRQIHRSFFSAYLGYPGNRFELVALMADSVLSDSPGPTWGRVVTLVTFAGTLLERGPLVTARWKKWGFQPRLKEQEGDVARDCQRLVALLSSRLMGQHRAWLQAQGGWDGFCHFFRTPFPLAFWRKQLVQAFLSCLLTTAFIYLWTRLL
notes: Expressed in 293T cells and immunoprecipitated from lysates; also called wildtype Bcl-B; pcDNA3-Myc-Bcl-B
B3: Myc-Bcl-B R96Q (other, not shown: small tags and cut ends)
chain: B2 chain with R96Q
notes: Myc-tagged Bcl-B point mutant
B4: Myc-Bcl-B L86A (other, not shown: small tags and cut ends)
chain: B2 chain with L86A
notes: Myc-tagged Bcl-B point mutant

Columns and labels:
Bax = target: T2, Bax (UniProt Q07812 1-192, limits assumed); assay: co-immunoprecipitation with anti-Myc beads from HEK293T lysates, anti-Bax immunoblot (FIG. 4A)
T2 construct: also called pcDNA3-Bax
Protocol: 293T cells (5×10₆) cultured with 50 uM […]-Val-Ala-Asp-fluoromethylketone (ZVAD-fmk, Bachem) were co-transfected with 1.5 ug of pcDNA3-Myc-Bcl-B, pcl-Neo-Flag-Bcl-B, pcDNA3-hCBP (Human Calcyclin Binding Protein) (used as a control), or pcDNA3-Flag-BCI-XL, together with 1.5 ug of pEGFP, pEGFP-Bcl-B, pcDNA3-HA-BAG1, pcDNA3-HA-Bax, pcDNA3-Flag-Bcl-XL, pRC-CMV-Bcl-2 or pEGFP-Bak. At 24 hrs post-transfection, cells were collected and resuspended in lysis buffer (142.4 mM KCI, 5 mM MgCl₂, 10 MM HEPES (pH 7.4), 0.5 mM EGTA, 0.2% NP-40) containing 12.5 mM p-glycerophosphate, 2 mM NaF, 1 mM Na₃VO₄, 1 mM DTT, 1 mM PMSF and a protease inhibitor mixture (Boehringer Mannheim). Soluble lysates were incubated with 10 ul anti-Myc (Santa Cruz) or anti-Flag (Sigma) antibody conjugated Sepharose beads overnight at 4° C. Beads were washed four times in 1.5 ml lysis buffer, and boiled in Laemmli gel-loading solution before performing SDS-PAGE/immunoblotting. The following polyclonal or monoclonal antibodies were used: polyclonal rabbit anti-GFP (Roche), monoclonal rat anti-HA (Roche), monoclonal mouse anti-Flag (Sigma), monoclonal mouse anti-Myc (Santa Cruz), rabbit anti-huBcl—2, or rabbit anti-huBcl-XL (Krajewski, et al., Am. J. Pathol. 145, 515-525 (1994); Krajewski et al., Cancer Res. 54, 5501-5507 (1994)).
Binding studies confirmed that binding between Bcl-B and Bax mediates suppression of apoptosis by Bax. In brief, HEK293T cells were transiently transfected with several Myc-tagged constructs (human calcyclin-binding protein, wildtype Bcl-B, L86A, R96Q, FFR(169-171)AAA, Δ118-133) and cell lysates were prepared and immunoprecipitated with anti-Myc antibody conjugated to beads. Immunoprecipitates were subjected to SDS-PAGE/immunoblot analysis using rabbit polyclonal antibodies specific for Bax (FIG. 4A). To confirm expression of proteins, lysates were subject to immunoblot analysis using antibodies specific for Bax and Myc.

GFP-Bak = target: T1, GFP-Bak; assay: co-immunoprecipitation from transfected 293T cell lysates, immunoblot

T2 sequence (Q07812 whole entry): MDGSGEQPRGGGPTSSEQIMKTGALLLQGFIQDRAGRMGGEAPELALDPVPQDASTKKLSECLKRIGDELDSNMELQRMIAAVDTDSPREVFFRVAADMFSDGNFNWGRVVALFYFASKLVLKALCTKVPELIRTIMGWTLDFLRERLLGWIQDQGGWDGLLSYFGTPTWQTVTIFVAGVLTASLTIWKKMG

Binder	binding result (Bax)	binding result (GFP-Bak)
B1	no binding	
B2		no binding
B3	no binding	
B4	no binding	
